In patent US20100291682, “SYSTEM FOR TRANSPOSING HYPERACTIVE RECOMBINANT DERIVATIVES OF MOS-1 TRANSPOSON” (published 2010):

Experiments:
Assay in all cases: cell_activity; 3T46 transposition in E. coli T5 vs 3T3/WT
Settings in all cases: chain copies: 2
Mos-1 transposase ET = target: T1, Mos-1 transposase ET (Drosophila mauritiana, UniProt Q7JQ07 SEQ:1-345, E137K,T216A)
T1 sequence: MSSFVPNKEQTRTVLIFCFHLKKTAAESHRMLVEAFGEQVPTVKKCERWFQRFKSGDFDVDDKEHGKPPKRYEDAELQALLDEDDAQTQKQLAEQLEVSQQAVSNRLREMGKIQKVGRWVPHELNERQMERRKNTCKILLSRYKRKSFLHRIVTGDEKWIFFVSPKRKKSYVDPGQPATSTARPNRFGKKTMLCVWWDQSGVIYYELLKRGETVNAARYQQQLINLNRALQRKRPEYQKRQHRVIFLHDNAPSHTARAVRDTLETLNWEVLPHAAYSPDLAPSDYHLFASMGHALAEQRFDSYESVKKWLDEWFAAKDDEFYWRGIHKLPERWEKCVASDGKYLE
Procedure: (§1) Escherichia coli JM109 bacteria were co-transformed with the pBC 3T3 plasmid (comprising a transposition reporter 2 ITR 3′ mariner-like element and the chloramphenicol resistance gene) and with the inducible vector encoding for the transposase (pKK-Tnp or pMal-Tnp) comprising the ampicillin resistance gene. The bacteria selection was performed on ampicillin (100 μg/ml) and chloramphenicol in order to verify the presence of the two plasmids.
(§2) The JM109 bacteria containing both the pBC 3T3 plasmid and the pKK-Tnp (or pMalC2X-Tnp) plasmid were placed in culture for 1 hr at 37° C. in 250 μl of LB. This inoculum was then poured into 5 ml of LB supplemented with 1 mM IPTG. The culture was titrated on LB plates (100 μl of a 1/1000 dilution) and on LB-Tet plates (12.5 μg/ml) (250 μl of the non-diluted culture). The culture induced by IPTG was then cultured for 5 hours at 32° C. (optimal temperature of transposase) under stirring (250 rpm). The bacterial suspension was then titrated on LB plates (100 μl of a 1/250,000 dilution) and on LB-tet plates (100 μl of the undiluted bacterial suspension). The plates were placed at 37° C. overnight. The following day, the colonies were counted on LB and LB-Tet plates, and the transposition frequency (equal to the number of tetracycline bacteria over the number of bacterial per 1 ml of undiluted bacterial suspension) was calculated.
(§3) In order to evaluate the transposition efficiency of systems associating a hyperactive transposase and a pseudo-transposon that is also hyperactive, various combinations were tested in the transposition test in bacteria described in part I, paragraph I-B above.

Mos-1 transposase FTY = target: T2, Mos-1 transposase FTY (Drosophila mauritiana, UniProt Q7JQ07 SEQ:1-345, F53Y,T216A,Y237C)
T2 sequence: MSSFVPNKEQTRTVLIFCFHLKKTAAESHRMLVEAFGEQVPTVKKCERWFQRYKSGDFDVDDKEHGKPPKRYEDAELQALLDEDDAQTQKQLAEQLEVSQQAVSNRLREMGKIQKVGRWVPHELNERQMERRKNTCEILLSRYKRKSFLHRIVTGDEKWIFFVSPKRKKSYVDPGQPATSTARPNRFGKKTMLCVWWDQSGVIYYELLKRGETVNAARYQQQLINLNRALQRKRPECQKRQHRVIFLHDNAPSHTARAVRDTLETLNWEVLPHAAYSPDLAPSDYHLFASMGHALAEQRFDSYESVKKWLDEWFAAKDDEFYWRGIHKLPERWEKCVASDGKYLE
Procedure: as §1, §2, §3

Mos-1 transposase FQETY = target: T3, Mos-1 transposase FQETY (Drosophila mauritiana, UniProt Q7JQ07 SEQ:1-345, F53Y,Q91R,E137K,T216A,Y237C)
T3 sequence: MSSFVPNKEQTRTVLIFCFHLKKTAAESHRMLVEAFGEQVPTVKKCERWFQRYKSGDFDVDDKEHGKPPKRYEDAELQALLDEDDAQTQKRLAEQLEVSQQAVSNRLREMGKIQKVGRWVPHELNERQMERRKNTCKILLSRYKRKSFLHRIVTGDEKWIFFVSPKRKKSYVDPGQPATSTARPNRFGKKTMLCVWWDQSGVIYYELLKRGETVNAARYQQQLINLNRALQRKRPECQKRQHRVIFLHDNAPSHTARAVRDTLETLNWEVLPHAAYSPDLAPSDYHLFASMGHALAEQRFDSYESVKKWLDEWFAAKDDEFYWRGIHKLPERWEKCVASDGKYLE
Procedure: as §1, §2, §3

Mos-1 transposase FETY = target: T4, Mos-1 transposase FETY (Drosophila mauritiana, UniProt Q7JQ07 SEQ:1-345, F53Y,E137K,T216A,Y237C)
T4 sequence: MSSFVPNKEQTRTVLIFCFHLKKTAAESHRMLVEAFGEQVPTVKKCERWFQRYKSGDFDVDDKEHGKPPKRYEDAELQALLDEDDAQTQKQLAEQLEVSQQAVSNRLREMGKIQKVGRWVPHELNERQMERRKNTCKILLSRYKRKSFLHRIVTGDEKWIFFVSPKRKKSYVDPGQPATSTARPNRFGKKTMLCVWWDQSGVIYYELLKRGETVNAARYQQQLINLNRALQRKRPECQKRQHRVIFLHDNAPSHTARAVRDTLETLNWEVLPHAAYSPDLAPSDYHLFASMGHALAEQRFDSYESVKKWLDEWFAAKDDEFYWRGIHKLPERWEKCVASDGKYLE
Procedure: as §1, §2, §3

B1: ITR46 (dsDNA)
DNA 1: TCAGGTGTACAAGTATGAGATGTCGTTT
DNA 2: AAACGACATCTCATACTTGTACACCTGA
activity (Mos-1 transposase ET): 6.7 fold | activity (Mos-1 transposase FTY): 19.4 fold | activity (Mos-1 transposase FQETY): 2.3 fold | activity (Mos-1 transposase FETY): 2 fold
